Measured values: patent publication US20100247549A1 (US Dept. of Health and Human Services, published 2010)

T1: human Fcγ R IIB (human, UniProt P31994 46-217)
T1 sequence: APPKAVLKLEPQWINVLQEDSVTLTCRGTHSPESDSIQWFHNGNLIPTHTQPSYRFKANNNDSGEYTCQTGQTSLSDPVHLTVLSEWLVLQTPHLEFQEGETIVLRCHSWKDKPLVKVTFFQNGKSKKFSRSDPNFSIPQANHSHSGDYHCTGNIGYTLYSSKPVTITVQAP

B1: Chimpanzee antibody Fab 5H2 (Fab, V domains shown)
VH: EVQLLESGPGLVKPSETLSLTCTVSGGSISDFYWSWLRQSPGKGLEWIGYAHSRVSAYYNPSLKSRVTISVDTSKNQLSLRLSAVTAADTALYYCARQGTGTTGVSEDPFDLWGQGTKVIVSL
VL: ELQMTQSPSSLSASVGDRVTITCRASQDISIRLNWYQQKPGKAPKLLIYDASTLESGVPSRFSGSGSGTDFTLTISSLQPEDFATYYCQQFNSYPLTFGGGTKVEIKR
B2: Humanized IgG 1A5 (IgG1), full-length (antibody)
heavy: not shown
light: ELQMTQSPSSVSASVGDTVTIACRASQSITNYLSWYQQKPGKAPKLLIYHASTLQSGIPSRFSGSGSGTDFTLTISSLQPDDFATYYCHYGYGTHTFGQGTKLEIKRTVAAPSVFIFPPSDEQLKSGTASVVCLLNNFYPREAKVQWKVDNALQSGNSQESVTEQDSKDNTYSLSSTLTLSKADYEKHKVYACEVTHQGLSSPVTKSFN
notes: also called IgG 1A5 WT; MAb IgG 1A5; copies: 2 + 2
B3: IgG 1A5 ΔD (IgG 1A5 with the 9-amino-acid deletion, amino acids 231-239, in the CH2 domain) (antibody)
heavy: EVQLLESGGGLVQPGGSRRLSCAASGFTISDNVMHWVRQAPGKGLEWVALIYSADTTHYADSVKGRFTISRDNSKNTLYLQMDSLRPEDTAVYYCAREYCTGDTCFAHFDYWGQGTLVSVSSASTKGPSVFPLAPSSKSTSGGTAALGCLVKDYFPEPVTVSWNSGALTSGVHTFPAVLQSSGLYSLSSVVTVPSSSLGTQTYICNVDHKPSNTKVDKKVEPKSCDKTHTCPPCPVFLFPPKPKDTLMISRTPEVTCVVVDVSHEDPEVKFNWYVDGVEVHNAKTKPREEQYNSTYRVVSVLTVLHQDWLNGKEYKCKVSNKALPAPIEKTISKAKGQPREPQVYTLPPSRDELTKNQVSLTCLVKGFYPSDIAVEWESNGQPENNYKTTPPVLDSDGSFFLYSKLTVDKSRWQQGNVFSCSVMHEALHNHYTQKSLSLSPGK
light: B2 light
notes: also called variant ΔD; copies: 2 + 2
B4: IgG 1A5 ΔA (replacement amino acids at 327, 330 and 331 from the Fc of IgG4) (antibody)
chain 1: EVQLLESGGGLVQPGGSRRLSCAASGFTISDNVMHWVRQAPGKGLEWVALIYSADTTHYADSVKGRFTISRDNSKNTLYLQMDSLRPEDTAVYYCAREYCTGDTCFAHFDYWGQGTLVSVSSASTKGPSVFPLAPSSKSTSGGTAALGCLVKDYFPEPVTVSWNSGALTSGVHTFPAVLQSSGLYSLSSVVTVPSSSLGTQTYICNVDHKPSNTKVDKKVEPKSCDKTHTCPPCPAPELLGGPSVFLFPPKPKDTLMISRTPEVTCVVVDVSHEDPEVKFNWYVDGVEVHNAKTKPREEQYNSTYRVVSVLTVLHQDWLNGKEYKCKVSNKGLPSSIEKTISKAKGQPREPQVYTLPPSRDELTKNQVSLTCLVKGFYPSDIAVEWESNGQPENNYKTTPPVLDSDGSFFLYSKLTVDKSRWQQGNVFSCSVMHEALHNHYTQKSLSLSPGK
chain 2: B2 light
B5: Humanized IgG 5H2 ΔD (IgG1 5H2 with a 9-amino-acid deletion, positions 231-239, at the N-terminus of the CH2 domain) (antibody)
heavy: EVQLLESGPGLVKPSETLSLTCTVSGGSISDFYWSWLRQSPGKGLEWIGYAHSRVSAYYNPSLKSRVTISVDTSKNQLSLRLSAVTAADTALYYCARQGTGTTGVSEDFFDLWGQGTKVIVSLASTKGPSVFPLAPSSKSTSGGTAALGCLVKDYFPEPVTVSWNSGALTSGVHTFPAVLQSSGLYSLSSVVTVPSSSLGTQTYICNVDHKPSNTKVDKKVEPKSCDKTHTCPPCPVFLFPPKPKDTLMISRTPEVTCVVVDVSHEDPEVKFNWYVDGVEVHNAKTKPREEQYNSTYRVVSVLTVLHQDWLNGKEYKCKVSNKALPAPIEKTISKAKGQPREPQVYTLPPSRDELTKNQVSLTCLVKGFYPSDIAVEWESNGQPENNYKTTPPVLDSDGSFFLYSKLTVDKSRWQQGNVFSCSVMHEALHNHYTQKSLSLSPGK
light: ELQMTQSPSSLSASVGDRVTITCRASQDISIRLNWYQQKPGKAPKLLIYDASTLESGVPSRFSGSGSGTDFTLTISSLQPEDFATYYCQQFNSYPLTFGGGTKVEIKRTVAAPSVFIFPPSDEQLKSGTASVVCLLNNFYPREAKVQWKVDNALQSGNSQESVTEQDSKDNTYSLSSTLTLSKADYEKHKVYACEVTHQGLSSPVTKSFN
notes: also called IgG1 5H2 ΔD; IgG 5H2D; copies: 2 + 2

How the values were obtained:
[1] = molecular target: Envelope glycoprotein (E) of parental DENV-4 (C6/36) (dengue virus type 4, UniProt P09866 280-774)
Chain of Envelope glycoprotein (E) of parental DENV-4 (C6/36) (P09866 280-774 limits assumed): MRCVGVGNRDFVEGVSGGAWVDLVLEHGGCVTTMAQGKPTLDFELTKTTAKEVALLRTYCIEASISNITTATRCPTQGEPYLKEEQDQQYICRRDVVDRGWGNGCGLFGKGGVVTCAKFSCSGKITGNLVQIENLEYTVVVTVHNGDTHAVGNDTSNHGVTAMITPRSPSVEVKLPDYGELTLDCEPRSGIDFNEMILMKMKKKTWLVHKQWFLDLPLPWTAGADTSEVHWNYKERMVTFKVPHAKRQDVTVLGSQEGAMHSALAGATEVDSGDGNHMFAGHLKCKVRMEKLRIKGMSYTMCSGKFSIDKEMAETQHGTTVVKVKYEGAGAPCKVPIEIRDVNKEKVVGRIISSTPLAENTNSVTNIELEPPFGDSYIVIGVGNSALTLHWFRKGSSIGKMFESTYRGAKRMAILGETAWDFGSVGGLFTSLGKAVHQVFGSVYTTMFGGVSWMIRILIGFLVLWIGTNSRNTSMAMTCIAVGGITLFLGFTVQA

human Fcγ R IIIB = human Fcγ R IIIB (human, UniProt O75015 17-200); test: ELISA, IgG titrated against human Fcγ R IIIB
Chain of human Fcγ R IIIB (O75015 17-200 limits assumed): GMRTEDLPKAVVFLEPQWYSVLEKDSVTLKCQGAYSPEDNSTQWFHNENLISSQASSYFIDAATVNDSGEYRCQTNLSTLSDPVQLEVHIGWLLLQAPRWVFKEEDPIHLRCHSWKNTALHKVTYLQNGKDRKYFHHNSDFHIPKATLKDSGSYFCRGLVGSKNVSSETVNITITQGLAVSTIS

human Fcγ R I = human Fcγ R I (human, UniProt P12314 16-288); test: ELISA, IgG titrated against human Fcγ R I
Chain of human Fcγ R I (P12314 16-288 limits assumed): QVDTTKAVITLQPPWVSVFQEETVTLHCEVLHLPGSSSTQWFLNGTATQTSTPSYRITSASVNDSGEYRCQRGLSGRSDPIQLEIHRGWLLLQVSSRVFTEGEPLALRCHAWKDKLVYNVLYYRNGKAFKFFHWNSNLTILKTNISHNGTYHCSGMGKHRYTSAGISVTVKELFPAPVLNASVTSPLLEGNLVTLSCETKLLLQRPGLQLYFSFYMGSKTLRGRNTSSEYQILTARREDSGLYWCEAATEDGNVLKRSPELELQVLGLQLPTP

human Fcγ R IIB = molecular target: T1, human Fcγ R IIB; test: ELISA, IgG titrated against human Fcγ R IIB
purified human C1q = purified human C1q (human, UniProt P02745 23-245; P02746 28-253; P02747 29-245); test: ELISA, IgG titrated against purified human C1q
Chain of purified human C1q (P02745 23-245 limits assumed, chain 1 of 3): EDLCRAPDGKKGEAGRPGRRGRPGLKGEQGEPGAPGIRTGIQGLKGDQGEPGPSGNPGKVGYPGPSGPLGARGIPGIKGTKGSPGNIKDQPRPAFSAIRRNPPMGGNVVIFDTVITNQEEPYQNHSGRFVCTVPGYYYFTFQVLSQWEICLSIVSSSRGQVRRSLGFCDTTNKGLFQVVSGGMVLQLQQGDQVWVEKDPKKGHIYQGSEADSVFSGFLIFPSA
Chain of purified human C1q (P02746 28-253 limits assumed, chain 2 of 3): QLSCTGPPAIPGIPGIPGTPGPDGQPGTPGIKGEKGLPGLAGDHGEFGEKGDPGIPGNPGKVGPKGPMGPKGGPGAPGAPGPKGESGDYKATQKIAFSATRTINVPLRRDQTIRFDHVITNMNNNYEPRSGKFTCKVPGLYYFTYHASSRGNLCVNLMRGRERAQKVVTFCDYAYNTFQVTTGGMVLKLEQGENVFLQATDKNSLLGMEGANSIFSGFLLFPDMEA
Chain of purified human C1q (P02747 29-245 limits assumed, chain 3 of 3): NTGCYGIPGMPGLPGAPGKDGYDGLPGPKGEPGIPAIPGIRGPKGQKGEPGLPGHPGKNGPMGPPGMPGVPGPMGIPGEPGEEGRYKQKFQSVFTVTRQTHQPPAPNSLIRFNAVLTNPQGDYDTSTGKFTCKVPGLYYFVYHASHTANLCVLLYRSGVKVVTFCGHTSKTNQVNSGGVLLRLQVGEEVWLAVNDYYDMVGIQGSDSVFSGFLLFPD

Binder | Kd [1] [nM] | binding result (human Fcγ R IIIB) | EC50 (read off the curve) (human Fcγ R I) [µg/mL] | binding result (human Fcγ R IIB) | binding result (purified human C1q)
B1 | 0.21 | – | – | – | –
B2 | – | binds | ~0.7 | binds | binds
B3 | – | – | – | – | no binding
B4 | – | – | ~3 | – | –
B5 | 0.14 | – | – | – | no binding
